From publication PMC4592971

Biological target: full length RhoA (Q63L) as it stands in the constitutively GTP-loaded DORA-RhoA biosensor (UniProt P61586)
Assay: FRET or BRET; FRET inside the single-chain DORA-RhoA biosensor (CFP on RhoA, YFP on the PKN1 domain) in living HeLa cells; single cell emission spectra and frequency domain FLIM of the donor (75.1 MHz)

Chain of UniProt P61586 (P61586 whole entry Q63L, the tested form may be a part): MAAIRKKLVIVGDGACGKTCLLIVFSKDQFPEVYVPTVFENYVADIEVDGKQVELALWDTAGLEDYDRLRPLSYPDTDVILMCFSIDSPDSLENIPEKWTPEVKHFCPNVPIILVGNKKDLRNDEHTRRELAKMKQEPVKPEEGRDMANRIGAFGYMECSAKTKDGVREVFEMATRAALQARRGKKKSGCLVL

median donor fluorescence lifetime (FLIM): 2.4 ns
Substance: Rho binding domain of PKN1 (cpPKN) as it stands in the DORA-RhoA biosensor (domain or fragment)
